Reference: US20200199241A1 (Chugai, published 2020)

T1: human FcγRIIa(R) (human, UniProt P12318 36-217)
T1 construct: also called FcgRIIaR; FcγRIIa type R
T1 chain: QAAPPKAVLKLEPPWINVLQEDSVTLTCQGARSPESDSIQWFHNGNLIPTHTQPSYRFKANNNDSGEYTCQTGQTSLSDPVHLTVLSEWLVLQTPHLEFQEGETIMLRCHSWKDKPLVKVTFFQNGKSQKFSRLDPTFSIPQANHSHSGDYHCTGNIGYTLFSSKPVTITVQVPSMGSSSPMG

T2: human FcγRIIb (human, UniProt P31994 43-217, limits assumed)
T2 construct: also called FcgRIIb
T2 sequence: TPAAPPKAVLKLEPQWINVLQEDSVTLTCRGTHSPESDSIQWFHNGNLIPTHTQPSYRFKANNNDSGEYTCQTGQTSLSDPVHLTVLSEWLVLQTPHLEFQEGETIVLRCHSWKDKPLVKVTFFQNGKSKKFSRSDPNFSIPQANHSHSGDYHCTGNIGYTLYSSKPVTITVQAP

T3: human FcγRIIa(H) (human, UniProt P12318 36-217)
T3 construct: also called FcgRIIaH; FcγRIIa type H
T3 sequence: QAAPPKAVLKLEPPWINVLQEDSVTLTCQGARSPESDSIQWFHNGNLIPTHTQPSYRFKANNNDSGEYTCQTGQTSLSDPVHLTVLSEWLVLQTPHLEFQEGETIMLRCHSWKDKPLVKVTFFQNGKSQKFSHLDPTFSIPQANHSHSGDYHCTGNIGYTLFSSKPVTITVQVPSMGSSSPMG


Assays:
Experiment in all cases: SPR (Biacore);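 further: antibody variants captured on sensor chip, Fcγ receptor flowed over at 25 °C, bound receptor normalized to amount of captured antibody, expressed relative to reference antibody set as 100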
human FcγRIa = molecular target: T4, human FcγRIa (human, UniProt P12314 16-292, limits assumed)
T4 construct: also called FcgRIa; FcγRI (CD64)

human FcγRIIa(R) = molecular target: T1, human FcγRIIa(R)
human FcγRIIIa(F) = molecular target: T5, human FcγRIIIa(F) (human, UniProt P08637 17-208, limits assumed)
T5 construct: also called FcgRIIIaF; allotype F158

human FcγRIIb = molecular target: T2, human FcγRIIb
human FcγRIIa(H) = molecular target: T3, human FcγRIIa(H)

T4 sequence (P12314 16-292 limits assumed): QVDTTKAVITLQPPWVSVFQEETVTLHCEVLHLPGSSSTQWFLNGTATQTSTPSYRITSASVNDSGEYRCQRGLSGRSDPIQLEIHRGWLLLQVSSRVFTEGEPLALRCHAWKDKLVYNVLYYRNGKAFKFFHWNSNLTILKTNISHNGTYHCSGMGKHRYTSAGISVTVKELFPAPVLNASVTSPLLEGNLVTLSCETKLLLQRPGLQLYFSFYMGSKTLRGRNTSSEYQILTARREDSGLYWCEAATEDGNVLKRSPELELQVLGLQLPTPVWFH
T5 sequence (P08637 other isoform, or with tags, fused parts or gaps limits assumed): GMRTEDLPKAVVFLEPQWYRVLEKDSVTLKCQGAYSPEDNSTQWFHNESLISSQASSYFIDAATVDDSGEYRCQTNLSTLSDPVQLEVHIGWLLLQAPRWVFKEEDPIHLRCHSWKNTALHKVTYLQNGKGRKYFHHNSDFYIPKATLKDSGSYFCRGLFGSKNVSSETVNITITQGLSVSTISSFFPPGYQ

| relative binding activity (human FcγRIa) | relative binding activity (human FcγRIIa(R)) | relative binding activity (human FcγRIIIa(F)) | relative binding activity (human FcγRIIb) | relative binding activity (human FcγRIIa(H)) | Binder |
| --- | --- | --- | --- | --- | --- |
| 5 % of GpH7-B3/GpL16-k0 | -1 % of GpH7-B3/GpL16-k0 | -1 % of GpH7-B3/GpL16-k0 | -2 % of GpH7-B3/GpL16-k0 | 0 % of GpH7-B3/GpL16-k0 | GpH7-B3 variant D265Y/GpL16-k0 (antibody, human IgG1, copies: 2 + 2) heavy: not shown light: DIVMTQSPLSLPVTPGEPASISCQASESLVHSNRNTYLHWYLQKPGQSPQLLIYKVSNRFSGVPDRFSGSGSGTDFTLKISRVEAEDVGVYYCSQNTHVPPTFGQGTKVEIE |
| 99 % of GpH7-B3/GpL16-k0 | 19 % of GpH7-B3/GpL16-k0 | 10 % of GpH7-B3/GpL16-k0 | 13 % of GpH7-B3/GpL16-k0 | 41 % of GpH7-B3/GpL16-k0 | GpH7-B3 variant E269F/GpL16-k0 (antibody, human IgG1, copies: 2 + 2) heavy: not shown light: DIVMTQSPLSLPVTPGEPASISCQASESLVHSNRNTYLHWYLQKPGQSPQLLIYKVSNRFSGVPDRFSGSGSGTDFTLKISRVEAEDVGVYYCSQNTHVPPTFGQGTKVEIE |
| 3 % of GpH7-B3/GpL16-k0 | -1 % of GpH7-B3/GpL16-k0 | -1 % of GpH7-B3/GpL16-k0 | -1 % of GpH7-B3/GpL16-k0 | 0 % of GpH7-B3/GpL16-k0 | GpH7-B3 variant D265V/GpL16-k0 (antibody, human IgG1, copies: 2 + 2) heavy: not shown light: DIVMTQSPLSLPVTPGEPASISCQASESLVHSNRNTYLHWYLQKPGQSPQLLIYKVSNRFSGVPDRFSGSGSGTDFTLKISRVEAEDVGVYYCSQNTHVPPTFGQGTKVEIE |
| 3 % of GpH7-B3/GpL16-k0 | -1 % of GpH7-B3/GpL16-k0 | -1 % of GpH7-B3/GpL16-k0 | -2 % of GpH7-B3/GpL16-k0 | 0 % of GpH7-B3/GpL16-k0 | GpH7-B3 variant D265N/GpL16-k0 (antibody, human IgG1, copies: 2 + 2) heavy: not shown light: DIVMTQSPLSLPVTPGEPASISCQASESLVHSNRNTYLHWYLQKPGQSPQLLIYKVSNRFSGVPDRFSGSGSGTDFTLKISRVEAEDVGVYYCSQNTHVPPTFGQGTKVEIE |
| 45 % of GpH7-B3/GpL16-k0 | -4 % of GpH7-B3/GpL16-k0 | 5 % of GpH7-B3/GpL16-k0 | -5 % of GpH7-B3/GpL16-k0 | 16 % of GpH7-B3/GpL16-k0 | GpH7-B3 variant D270K/GpL16-k0 (antibody, human IgG1, copies: 2 + 2) heavy: not shown light: DIVMTQSPLSLPVTPGEPASISCQASESLVHSNRNTYLHWYLQKPGQSPQLLIYKVSNRFSGVPDRFSGSGSGTDFTLKISRVEAEDVGVYYCSQNTHVPPTFGQGTKVEIE |
| 94 % of GpH7-B3/GpL16-k0 | 38 % of GpH7-B3/GpL16-k0 | 27 % of GpH7-B3/GpL16-k0 | 25 % of GpH7-B3/GpL16-k0 | 46 % of GpH7-B3/GpL16-k0 | GpH7-B3 variant E269G/GpL16-k0 (antibody, human IgG1, copies: 2 + 2) heavy: not shown light: DIVMTQSPLSLPVTPGEPASISCQASESLVHSNRNTYLHWYLQKPGQSPQLLIYKVSNRFSGVPDRFSGSGSGTDFTLKISRVEAEDVGVYYCSQNTHVPPTFGQGTKVEIE |
| 17 % of GpH7-B3/GpL16-k0 | -1 % of GpH7-B3/GpL16-k0 | -1 % of GpH7-B3/GpL16-k0 | -2 % of GpH7-B3/GpL16-k0 | 0 % of GpH7-B3/GpL16-k0 | GpH7-B3 variant D265M/GpL16-k0 (antibody, human IgG1, copies: 2 + 2) heavy: not shown light: DIVMTQSPLSLPVTPGEPASISCQASESLVHSNRNTYLHWYLQKPGQSPQLLIYKVSNRFSGVPDRFSGSGSGTDFTLKISRVEAEDVGVYYCSQNTHVPPTFGQGTKVEIE |
| 93 % of GpH7-B3/GpL16-k0 | 20 % of GpH7-B3/GpL16-k0 | 28 % of GpH7-B3/GpL16-k0 | 13 % of GpH7-B3/GpL16-k0 | 51 % of GpH7-B3/GpL16-k0 | GpH7-B3 variant E269A/GpL16-k0 (antibody, human IgG1, copies: 2 + 2) heavy: not shown light: DIVMTQSPLSLPVTPGEPASISCQASESLVHSNRNTYLHWYLQKPGQSPQLLIYKVSNRFSGVPDRFSGSGSGTDFTLKISRVEAEDVGVYYCSQNTHVPPTFGQGTKVEIE |
| 45 % of GpH7-B3/GpL16-k0 | -5 % of GpH7-B3/GpL16-k0 | 2 % of GpH7-B3/GpL16-k0 | -5 % of GpH7-B3/GpL16-k0 | 11 % of GpH7-B3/GpL16-k0 | GpH7-B3 variant D270R/GpL16-k0 (antibody, human IgG1, copies: 2 + 2) heavy: not shown light: DIVMTQSPLSLPVTPGEPASISCQASESLVHSNRNTYLHWYLQKPGQSPQLLIYKVSNRFSGVPDRFSGSGSGTDFTLKISRVEAEDVGVYYCSQNTHVPPTFGQGTKVEIE |
| 82 % of GpH7-B3/GpL16-k0 | 3 % of GpH7-B3/GpL16-k0 | 6 % of GpH7-B3/GpL16-k0 | 3 % of GpH7-B3/GpL16-k0 | 29 % of GpH7-B3/GpL16-k0 | GpH7-B3 variant D270G/GpL16-k0 (antibody, human IgG1, copies: 2 + 2) heavy: not shown light: DIVMTQSPLSLPVTPGEPASISCQASESLVHSNRNTYLHWYLQKPGQSPQLLIYKVSNRFSGVPDRFSGSGSGTDFTLKISRVEAEDVGVYYCSQNTHVPPTFGQGTKVEIE |
| 98 % of GpH7-B3/GpL16-k0 | 20 % of GpH7-B3/GpL16-k0 | 10 % of GpH7-B3/GpL16-k0 | 12 % of GpH7-B3/GpL16-k0 | 40 % of GpH7-B3/GpL16-k0 | GpH7-B3 variant E269L/GpL16-k0 (antibody, human IgG1, copies: 2 + 2) heavy: not shown light: DIVMTQSPLSLPVTPGEPASISCQASESLVHSNRNTYLHWYLQKPGQSPQLLIYKVSNRFSGVPDRFSGSGSGTDFTLKISRVEAEDVGVYYCSQNTHVPPTFGQGTKVEIE |
